# Measurements as given in IntAct's records for PubMed 21572435.
# B1: ETS translocation variant 1 (Homo sapiens), P50549-1 (parent)
# chain: MDGFYDQQVPYMVTNSQRGRNCNEKPTNVRKRKFINRDLAHDSEELFQDLSQLQETWLAEAQVPDNDEQFVPDYQAESLAFHGLPLKIKKEPHSPCSEISSACSQEQPFKFSYGEKCLYNVSAYDQKPQVGMRPSNPPTPSSTPVSPLHHASPNSTHTPKPDRAFPAHLPPSQSIPDSSYPMDHRFRRQLSEPCNSFPPLPTMPREGRPMYQRQMSEPNIPFPPQGFKQEYHDPVYEHNTMVGSAASQSFPPPLMIKQEPRDFAYDSEVPSCHSIYMRQEGFLAHPSRTEGCMFEKGPRQFYDDTCVVPEKFDGDIKQEPGMYREGPTYQRRGSLQLWQFLVALLDDPSNSHFIAWTGRGMEFKLIEPEEVARRWGIQKNRPAMNYDKLSRSLRYYYEKGIMQKVAGERYVYKFVCDPEALFSMAFPDNQRPLLKTDMERHINEEDTVPLSHFDESMAYMPEGGCCNPHPYNEGYVY
# Variants of: B1
# Conditions: with COP1, Q8NHY2-1
# COP1, Q8NHY2-1, sequence (Q8NHY2 whole entry): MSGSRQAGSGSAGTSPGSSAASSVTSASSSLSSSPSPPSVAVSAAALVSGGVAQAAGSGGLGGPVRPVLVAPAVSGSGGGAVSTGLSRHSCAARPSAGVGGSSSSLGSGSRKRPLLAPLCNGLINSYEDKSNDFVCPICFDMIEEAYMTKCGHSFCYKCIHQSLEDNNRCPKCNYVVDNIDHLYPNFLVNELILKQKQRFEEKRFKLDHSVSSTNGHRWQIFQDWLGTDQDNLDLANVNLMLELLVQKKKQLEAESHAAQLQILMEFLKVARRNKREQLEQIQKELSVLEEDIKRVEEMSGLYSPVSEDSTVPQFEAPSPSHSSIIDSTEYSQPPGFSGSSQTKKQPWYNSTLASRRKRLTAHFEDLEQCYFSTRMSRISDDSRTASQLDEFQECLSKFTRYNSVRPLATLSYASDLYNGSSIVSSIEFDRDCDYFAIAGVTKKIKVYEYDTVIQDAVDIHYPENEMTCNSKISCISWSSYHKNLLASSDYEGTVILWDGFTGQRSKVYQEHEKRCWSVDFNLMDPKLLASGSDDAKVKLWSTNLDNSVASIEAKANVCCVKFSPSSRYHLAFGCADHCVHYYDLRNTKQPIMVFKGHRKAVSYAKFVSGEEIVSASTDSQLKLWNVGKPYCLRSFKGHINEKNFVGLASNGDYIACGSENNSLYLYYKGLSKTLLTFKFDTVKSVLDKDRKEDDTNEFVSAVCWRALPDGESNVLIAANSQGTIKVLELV
row,Variant,effect of a mutation on the interaction
1,V71A;P72A,decreasing interaction
2,V63A;P64A;V71A;P72A,decreasing interaction
